According to PMC9076600, “Ultrasensitive detection of Staphylococcal enterotoxin B in milk based on target-triggered assembly of the flower like nucleic acid nanostructure†”:

Assays:
Assay in all cases: Binding buffer not stated; […] (50 uM) […]
[1] = target: OVA (UniProt P01012 2-386)
[2] = target: Staphylococcal enterotoxin A (SEA) (UniProt P0A0L2 25-257)
[3] = target: Staphylococcal enterotoxin B (SEB) (UniProt P01552 28-266)
Sequence of Staphylococcal enterotoxin B (SEB) (P01552 28-266): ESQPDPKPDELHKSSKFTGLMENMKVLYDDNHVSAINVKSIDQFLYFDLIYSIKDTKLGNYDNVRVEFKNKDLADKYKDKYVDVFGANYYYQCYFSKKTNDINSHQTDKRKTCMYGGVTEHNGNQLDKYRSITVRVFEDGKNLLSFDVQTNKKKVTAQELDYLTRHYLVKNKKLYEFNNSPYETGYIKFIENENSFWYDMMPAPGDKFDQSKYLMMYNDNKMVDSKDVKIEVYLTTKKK

Sequence of Staphylococcal enterotoxin A (SEA) (P0A0L2 25-257): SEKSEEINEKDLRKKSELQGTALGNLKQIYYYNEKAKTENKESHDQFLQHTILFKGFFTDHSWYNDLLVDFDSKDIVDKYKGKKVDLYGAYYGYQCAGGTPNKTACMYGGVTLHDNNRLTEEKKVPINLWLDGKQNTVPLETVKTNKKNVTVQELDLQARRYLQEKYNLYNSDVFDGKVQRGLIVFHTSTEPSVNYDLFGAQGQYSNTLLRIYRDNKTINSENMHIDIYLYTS
Sequence of OVA (P01012 2-386): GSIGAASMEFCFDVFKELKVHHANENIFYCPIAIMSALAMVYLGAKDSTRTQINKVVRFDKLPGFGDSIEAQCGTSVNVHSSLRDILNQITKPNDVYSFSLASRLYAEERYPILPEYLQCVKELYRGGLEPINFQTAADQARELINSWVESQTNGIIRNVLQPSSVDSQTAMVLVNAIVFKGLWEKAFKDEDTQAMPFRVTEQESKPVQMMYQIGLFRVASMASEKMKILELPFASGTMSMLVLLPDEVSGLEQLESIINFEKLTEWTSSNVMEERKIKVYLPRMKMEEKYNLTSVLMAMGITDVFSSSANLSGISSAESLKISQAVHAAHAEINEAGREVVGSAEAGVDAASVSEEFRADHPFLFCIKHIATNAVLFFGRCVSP

B1: SEB aptamer (ssDNA)
DNA: GGTATTGAGGGTCGCATCCACTGGTCGTTGTCTGTTGTCTGTTATGTTGTTTCGTGATGGCTCTAACTCTCCTCT
Q: Does B1 bind [1]?
A: Result: no binding

Q: Does B1 bind [2]?
A: Result: no binding

Q: Does B1 bind [3]?
A: Result: binds
